Tests used:
Naglu KO mice [1] = test: Naglu enzyme activity in tissues of Naglu KO mice after intrathecal administration; type: in vivo; details: 520 mg/kg brain, 24 hrs post final dose
Protocol: (§1) To evaluate the in vivo activity of Naglu-SPP and its efficacy as a therapeutic for the treatment of lysosomal storage diseases, particularly San B, Naglu-SPP was administered to Naglu KO mice via intrathecal injection. Intrathecal administration of Naglu-IGFII served as a positive control. The experimental conditions used for this assay are described in Tables 10 and 11 below.
24 hours after intrathecal administration of each respective fusion protein, Naglu KO mice were sacrificed and Naglu enzyme activity in various tissues was assayed. Total Naglu activity was evaluated using a well-established enzyme activity assay. Briefly, tissue homogenate was incubated in the presence of the Naglu specific substrate methylumbelliferyl-N-acetyl-α-D-glucosainide, and accumulation of cleavage product was measured by examining fluorescence intensity at 360/460 nm (excitation/emission) using a fluorescent plate reader. […] This increase in enzyme activity was observed over the duration of the 3 week treatment period.

[2] = biological target: T1, recombinant 6×Histidine tagged human SORT1 (Homo sapiens, UniProt Q99523); test: Surface plasmone resonance binding of Naglu-SPP to SORT1
T1 sequence (Q99523 78-831): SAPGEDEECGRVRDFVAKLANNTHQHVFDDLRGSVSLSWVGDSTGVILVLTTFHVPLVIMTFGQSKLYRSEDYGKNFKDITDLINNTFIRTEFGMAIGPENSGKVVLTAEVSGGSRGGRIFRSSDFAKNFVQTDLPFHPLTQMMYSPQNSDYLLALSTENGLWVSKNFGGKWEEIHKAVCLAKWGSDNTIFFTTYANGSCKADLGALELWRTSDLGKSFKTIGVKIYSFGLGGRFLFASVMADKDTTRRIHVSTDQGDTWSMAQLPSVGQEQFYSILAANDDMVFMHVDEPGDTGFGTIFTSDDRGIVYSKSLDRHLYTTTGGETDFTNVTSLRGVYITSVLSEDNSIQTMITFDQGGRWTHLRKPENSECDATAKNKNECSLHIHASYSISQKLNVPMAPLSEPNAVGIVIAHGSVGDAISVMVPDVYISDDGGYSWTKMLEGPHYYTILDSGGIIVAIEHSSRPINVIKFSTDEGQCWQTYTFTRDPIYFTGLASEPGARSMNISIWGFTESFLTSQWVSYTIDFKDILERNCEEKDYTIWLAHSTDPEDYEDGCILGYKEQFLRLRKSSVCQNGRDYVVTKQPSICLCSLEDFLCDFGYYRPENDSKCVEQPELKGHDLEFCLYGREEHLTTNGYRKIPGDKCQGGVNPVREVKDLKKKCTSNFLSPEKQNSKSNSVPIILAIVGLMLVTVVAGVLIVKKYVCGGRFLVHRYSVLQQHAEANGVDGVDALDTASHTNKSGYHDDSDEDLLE
Protocol: Studies were also carried out to determine the binding properties of Naglu-SPP and evaluate its specificity for SORT1 by surface plasmone resonance (SPR), a commonly used standard technique. Briefly, anti-His mAb (capturing molecule) was diluted in immobilization buffer and bound on the dextran surface of a SPR sensor chip housed in a microfluidic system. Next, a solution containing recombinant 6×Histidine tagged human SORT1 (ligand) was injected into the microflow system and run over the surface-bound anti-His mAbs to form a “capture complex.” A solution containing purified Naglu-SPP protein (analyte) was then injected into the device. As the solution moved over the SPR sensor chip, the analyte bound to the capture complex and an increase in SPR signal (expressed in response units, RU) was observed. Finally, a solution without analyte was injected into the microfluidic device to detach bound […] from the capture complex, resulting in a decrease in SPR signal. The detailed experimental conditions are described in Table 6 below.

[3] = tested on: SORT overexpressing cells; test: Immunofluorescence microscopy of cellular entry and lysosomal targeting (Naglu / Lamp-1); type: cell-based
Protocol: Studies were carried out using immunofluorescence microscopy to evaluate cellular entry and lysosomal targeting. For these studies, SORT overexpressing cells were treated with vehicle control or Naglu-SPP and then fixed and prepared for staining. Both vehicle control (FIG. 6A) and Naglu-SPP (FIG. 6B) treated cells were stained using antibodies specific for human Naglu and Lamp-1, a lysosome-specific protein biomarker.

wild-type rats = test: Naglu enzyme activity in liver and brain after intrathecal administration (biodistribution); type: in vivo; details: 385 ug/animal
Protocol: To evaluate biodistribution of the SORT1-binding Naglu fusion proteins, an in vivo study was conducted using wild-type rats subjected to intrathecal administration of vehicle control (PBS), rhNaglu, Naglu-IGFII, Naglu-SPP, Naglu-SapDC or Naglu-tPRGN. Details of the experimental design are provide in Table 9 below. Previous experiments had shown that Naglu-IGFII but not rhNaglu penetrates into brain tissue and is targeted to lysosomes after intrathecal injection. Accordingly, rhNaglu and Naglu-IGFII were utilized in this study as negative and positive controls, respectively.
Rats were sacrificed either 4 or 24 hours post intrathecal administration of the respective fusion protein and total Naglu enzyme activity in the animals' liver and brain tissue was determined using a well-established enzyme activity assay (FIGS. 7A and B). Briefly, brain and liver tissue homogenates were prepared and incubated in the presence of a Naglu specific substrate, i.e., methylumbelliferyl-N-acetyl-α-D-glucosainide; accumulation of cleavage product was then measured by examining fluorescence intensity at 360/460 nm (excitation/emission) using a fluorescent plate reader.

Naglu KO mice [4] = test: Sanfillipo B specific biomarkers in brain by LC/MS; type: in vivo; details: intrathecal, 520 mg/kg brain, especially 2× weekly and 3× weekly
Protocol: as §1
Using the same LC/MS technology as used for the quantification of heparin sulfate (see above), the presence of Sanfillipo B specific biomarkers in brains of treated KO mice were evaluated. Naglu deficiency causes the accumulation of certain heparin sulfate degradation products (presented in FIGS. 13A-C) which are natural substrates of Naglu. These biomarkers are the most relevant indications for Naglu deficiency.

Naglu KO mice [5] = test: Heparan sulfate in brain by LC/MS; type: in vivo; details: intrathecal, 520 mg/kg brain, 2× weekly and 3× weekly
Protocol: as §1
In a second assay, we evaluation the total amount of heparan sulfate in the brain of treated KO mice. […] To measure heparan sulfate in mouse brain tissue, a highly sensitive LC/MS method was applied (Lawrence et al, 2012, Nat Chem Biol. 2012 Jan. 8; 8(2):197-204). Briefly, total GAG from brain tissue was extracted by a DEAE column and a desalting column, and then dried and weighted. The extracted GAG was treated with heparin lyases that specifically release unique mono, di and tri saccharides of heparan sulfate, and the sample was then analyzed by LC/MS. The released saccharides were identified and quantified using commercially available saccharide standards of heparan sulfate degradation.

B1: Naglu-SPP: Fusion protein of human Naglu and SORT1 propeptide (SPP) via GAG3 linker; SEQ ID NO:17 (full-length), SEQ ID NO:22 (protein)
chain: MEAVAVAAAVGVLLLAGAGGAAGDEAREAAAVRALVARLLGPGPAADFSVSVERALAAKPGLDTYSLGGGGAARVRVRGSTGVAAAAGLHRYLRDFCGCHVAWSGSQLRLPRPLPAVPGELTEATPNRYRYYQNVCTQSYSFVWWDWARWEREIDWMALNGINLALAWSGQEAIWQRVYLALGLTQAEINEFFTGPAFLAWGRMGNLHTWDGPLPPSWHIKQLYLQHRVLDQMRSFGMTPVLPAFAGHVPEAVTRVFPQVNVTKMGSWGHFNCSYSCSFLLAPEDPIFPIIGSLFLRELIKEFGTDHIYGADTFNEMQPPSSEPSYLAAATTAVYEAMTAVDTEAVWLLQGWLFQHQPQFWGPAQIRAVLGAVPRGRLLVLDLFAESQPVYTRTASFQGQPFIWCMLHNFGGNHGLFGALEAVNGGPEAARLFPNSTMVGTGMAPEGISQNEVVYSLMAELGWRKDPVPDLAAWVTSFAARRYGVSHPDAGAAWRLLLRSVYNCSGEACRGHNRSPLVRRPSLQMNTSIWYNRSDVFEAWRLLLTSAPSLATSPAFRYDLLDLTRQAVQELVSLYYEEARSAYLSKELASLLRAGGVLAYELLPALDEVLASDSRFLLGSWLEQARAAAVSEAEADFYEQNSRYQLTLWGPEGNILDYANKQLAGLVANYYTPRWRLFLEALVDSVAQGIPFQQHQFDKNVFQLEQAFVLSKQRYPSQPRGDTVDLAKKIFLKYYPRWVAGSWGAPGGGGGAAAAAGGGGGGAPGGGGGAAAAAGGGGGGAPGGGGGAAAAAGGGGGGAPQDRLDAPPPPAAPLPRWSGPIGVSWGLRAAAAGGAFPRGGRWRR
Naglu activity in liver and brain tissue vs vehicle control (Naglu KO mice [1]): dramatic increase
average association constant (Ka) ([2]; SPR, Naglu-SPP 0 to 20 nM): approximately 1.1×10^6 1/Ms
dissociation constant (Kd) ([2]; SPR, Naglu-SPP 0 to 20 nM): approximately 7.1×10^−4 1/s
binding to SORT1 ([2]; all concentrations tested (0 to 20 nM)): strong binding
intracellular localization of Naglu fluorescence (co-localization with Lamp-1) [3]: localized predominantly within lysosomal vesicles
rank of Naglu enzyme activity in brain among treatments (wild-type rats): highest activity
Naglu enzyme activity in brain (wild-type rats; 4 or 24 hours post dose): markedly elevated levels
accumulation of three GAG cleavage products (San B biomarkers) in brain (Naglu KO mice [4]): dramatic decrease
total amount of heparan sulfate accumulation in brain tissue (Naglu KO mice [5]): strong reduction
